Here are results for one protein from patent publication EP1897948A1 (ZymoGenetics, Inc., dated 2008).

This data set concerns the molecule itself. Kind of data set: western blot of BHK media, reducing (29 kDa) against non-reducing (49 kDa).

B1: Human Ztgfβ-9 protein (ligand)
chain: AGAPRAGRRPARPRGCADRPEELLEQLYGRLAAGVLSAFHHTLQLGPREQARNASCPAGGRPADRRFRPPTNLRSVSPWAYRISYDPARYPRYLPEAYCLCRGCLTGLFGEEDVRFRSAPVYMPTVVLRRTPACAGGRSVYTEAYVTIPVGCTCVPEPEKDADSINSSIDKQGAKLLLGPNDAPAGP
notes: Expressed in BHK cells without a tag and secreted into the medium; also called transforming growth factor beta-9
Turning to B1, the binding result is “binds”.
